According to patent US10858396B2, “HER2 peptide regents and methods” (THE REGENTS OF THE UNIVERSITY OF MICHIGAN, priority 2015, dated 2020):
“Also recorded” adds a separate entry of the source. One block for each compound: values may come before it. Ends that are not written are not given here.

Key:
[1] = system: HER2-mediated signaling; experiment: Effect of HER2 peptide on cell signaling (western blot); assay type: cell-based, human; conditions: 48 hours
Experimental: SKBR3 cells are commonly used to evaluate HER2 signaling, and were grown in 6 well plates to ˜60% confluence. Unlabeled KSP* peptide was added to separate wells at concentrations of 5 and 100 μM. Lapatinib, a tyrosine kinase inhibitor, was used as a positive control and was added in concentrations of 1, 25, 100 and 1000 nM. Lapatinib stock solution starting at 1 mg/mL was diluted in DMSO and PBS. 1% DMSO treated cells and untreated cells were used as control. After 48 hours following treatment, the cells were harvested for western blot analysis. Anti-HER2 antibody (Cell Signaling, #2165), phospho-HER2/ErbB2 (Tyr1248) antibody (Cell Signaling, #2247), anti-AKT (Cell Signaling, #4691P), anti-ERK1/2 (Cell Signaling, #4695P), anti-phospho-AKT (pS473), (Cell Signaling, #4060P), anti-phospho-ERK1/2 (Cell Signaling, #4370P) and anti-tubulin (Invitrogen, #32-2600) were used per manufacturer's instructions.

[2] = target: T1, HER2 (Homo sapiens, UniProt P04626); experiment: Competition for peptide reagent binding with unlabeled KSP* on HT29 cells; parameters: host or cells: HT29; conditions: unlabeled KSP* 0, 10, 25, 50, 100 μM, then 2 μM KSP*-Cy5.5
Experimental: Specific binding of KSP*-Cy5.5 to HT29 cells was validated on competitive inhibition with unlabeled KSP* peptide reagent. ˜7500 HT29 cells were grown to ˜70% confluence on cover slips in triplicate. Unlabeled KSP* peptide at 0, 10, 25, 50, and 100 μM were added and incubated with the cells for 30 min at 4° C. The cells were washed 3× with PBS, and further incubated with 2 μM of KSP*-Cy5.5 for another 30 min at 4° C. The cells were washed 3× with PBS and fixed with 4% PFA for 10 min. The cells were washed with PBS and mounted with ProLong Gold reagent containing DAPI (Invitrogen). Confocal fluorescence images were collected at each concentration, and intensities from 3 independent images were quantified using custom Matlab (Mathworks) software.

[3] = target: T1, HER2; experiment: Confocal microscopy of FITC-labeled candidate peptides binding to Flo1-HER2 and Q-hTERT (control) cells; assay type: cell-based; conditions: FITC-labeled peptide 10 μM, Flo1-HER2 relative to Q-hTERT cells
Experimental: Flo-1-Her2 and Q-hTERT cells were seeded with ˜7,500 cells in 12-well plates with 1.5 mm thick glass cover slides, and grown to ˜70% confluence. The cells were gently washed with cold PBS before adding the peptide. 10 μM of FITC-labeled peptide was added to each well and incubated at 4° C. for 1 hour. After incubation, the cells were washed 3× with PBS, fixed in ice-cold 4% PFA for 10 min, and washed 1× with PBS. Subsequently, the cells were embedded on microscope slides with ProLong Gold reagent containing DAPI (Invitrogen), and the slides where analyzed with a Leica TCS SP5 confocal microscope using 63× oil immersion objective (Leica Microsystems, Leider Lane IL). The FITC-labeled peptides and anti-HER2 antibody were tested in quadruplicate.

[4] = target: T2, ErbB2 (HER2) (Homo sapiens, UniProt P04626); experiment: Staining of FFPE human Barrett's esophagus specimens with peptide reagents; conditions: excised human specimens, 5 μM, 10 min
T2 construct: specimens of human esophagus were obtained from an archived tissue bank; from tissue; host or cells: FFPE human esophagus (SQ, BE, LGD, HGD, EAC)
Experimental: Formalin-fixed, paraffin-embedded (FFPE) specimens of human esophagus were obtained from an archived tissue bank. 5 μm thick sections were cut, and mounted onto glass slides (Superfrost Plus, Fischer Scientific). The tissues were deparaffinized, and antigen retrieval was performed. The sections were blocked with protein serum for 15 min at room temperature followed by rinsing with PBS. The sections were then stained with either KSP*-Cy5.5 or RHP*-Cy5.5 at 5 μM concentration for 10 min at room temperature. The sections were then washed 3× for 3 min with PBS and further incubated with anti-HER2 antibody overnight at 4° C. Sections were washed 3× with PBST and mounted with Prolong Gold reagent containing DAPI (Invitrogen) using #1 cover glass ([…]).

[5] = target: T3, HER2 over expressed by mouse colonic dysplasia (Mus musculus, UniProt P70424); experiment: Peptide reagent immunofluorescence on mouse colonic adenoma sections; conditions: 2 μM, 10 min at RT, confocal microscopy
T3 construct: validate over expression of HER2 in mouse colonic dysplasia; from tissue; host or cells: colonic adenomas / colon of CPC;Apc mice (in vivo, excised colon, fixed sections)
T3 sequence (P70424 23-1256): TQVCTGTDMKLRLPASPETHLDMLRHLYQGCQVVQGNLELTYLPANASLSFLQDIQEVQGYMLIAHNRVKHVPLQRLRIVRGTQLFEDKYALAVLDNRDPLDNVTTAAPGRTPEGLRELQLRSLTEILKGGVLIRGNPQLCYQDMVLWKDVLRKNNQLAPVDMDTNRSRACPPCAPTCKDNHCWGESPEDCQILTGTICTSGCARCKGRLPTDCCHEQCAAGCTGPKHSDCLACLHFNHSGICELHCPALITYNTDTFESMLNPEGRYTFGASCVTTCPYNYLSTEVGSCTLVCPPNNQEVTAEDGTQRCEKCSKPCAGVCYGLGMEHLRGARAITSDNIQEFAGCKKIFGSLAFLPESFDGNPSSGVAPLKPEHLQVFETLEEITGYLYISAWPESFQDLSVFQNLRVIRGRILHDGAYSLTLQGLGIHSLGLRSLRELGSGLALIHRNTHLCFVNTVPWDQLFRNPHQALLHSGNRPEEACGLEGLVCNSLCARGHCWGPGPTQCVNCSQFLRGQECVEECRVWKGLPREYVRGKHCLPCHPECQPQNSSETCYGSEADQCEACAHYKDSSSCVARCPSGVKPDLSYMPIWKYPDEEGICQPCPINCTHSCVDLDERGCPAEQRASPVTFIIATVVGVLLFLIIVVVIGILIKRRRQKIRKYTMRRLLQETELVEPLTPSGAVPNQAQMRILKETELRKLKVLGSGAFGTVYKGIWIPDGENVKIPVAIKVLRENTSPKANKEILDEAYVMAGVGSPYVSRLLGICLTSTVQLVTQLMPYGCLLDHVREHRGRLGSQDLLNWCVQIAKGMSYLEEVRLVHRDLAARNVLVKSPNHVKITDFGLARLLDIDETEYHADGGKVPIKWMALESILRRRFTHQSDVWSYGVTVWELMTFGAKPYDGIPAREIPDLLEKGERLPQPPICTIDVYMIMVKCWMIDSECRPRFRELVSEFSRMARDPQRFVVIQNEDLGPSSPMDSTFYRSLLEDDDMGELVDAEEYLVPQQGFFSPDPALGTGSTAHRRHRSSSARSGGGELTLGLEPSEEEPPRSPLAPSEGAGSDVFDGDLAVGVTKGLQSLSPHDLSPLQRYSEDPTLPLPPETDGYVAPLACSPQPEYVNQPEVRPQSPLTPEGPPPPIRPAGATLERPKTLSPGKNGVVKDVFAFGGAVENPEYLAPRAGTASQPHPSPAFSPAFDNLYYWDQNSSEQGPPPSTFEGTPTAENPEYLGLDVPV
Experimental: Specimens of mouse colonic adenoma were formalin fixed and processed, as described previously. Serial 5 μm sections were incubated with 2 μM of each peptide for 10 min at RT. The sections were washed 3× with PBS, and mounted with Prolong Gold reagent containing DAPI (Invitrogen). Adjacent sections were processed for histology (H&E).

[6] = target: T4, colonic adenomas that over express HER2 (Mus musculus, UniProt P70424); experiment: In vivo endoscopic NIR imaging of mouse colonic adenomas, topical peptide reagent; conditions: CPC;Apc mice
T4 construct: validate over expression of HER2 in mouse colonic dysplasia; from tissue; host or cells: colonic adenomas / colon of CPC;Apc mice (in vivo, excised colon, fixed sections)
T4 sequence (P70424 23-1256): as above
Experimental: Mouse imaging studies were performed with approval of the University of Michigan Committee on the Use and Care of Animals (UCUCA). The mice were housed in pathogen-free conditions and supplied water ad libitum under controlled conditions of humidity (50±10%), light (12/12 hour light/dark cycle) and temperature (25° C.). Anesthesia was induced and maintained via a nose cone with inhaled isoflurane mixed with oxygen at a concentration of 2-4% at a flow rate of ˜0.5 L/min. The colon was first rinsed with tap water to remove mucous and debris. White light illumination was used first to identify anatomic landmarks, including polyps, mucosal folds, colonic segment, and distance of endoscope tip from anus, to register the in vivo images with histology. […] During imaging, we recorded the 1) distance between the endoscope tip and the anus and 2) clockwise location of each region of high intensity. […]
White light and fluorescence videos were exported in avi format with 24 (RGB) and 8 (grayscale) bit digital resolution for the color and fluorescence images, respectively. […] On the fluorescence images, 3 regions of interest (ROI) with dimensions of 25×25 pixels were picked to represent a range of staining for normal and diseased tissues and averaged. The mean intensities within these ROI were determined to calculate the target to-background (T/B) ratio.

[7] = target: T1, HER2; experiment: Confocal fluorescence microscopy of peptide reagent binding to HT29 and SW480 cells; assay type: cell-based; parameters: host or cells: HT29, SW480; conditions: 5 μM, 30 min at 4° C.
Experimental: Cells were washed with PBS and incubated with 5 μM of KSP*-Cy5.5 and PPS*-Cy5.5 for 30 min at 4° C. The cells were then washed 3× in PBS, fixed with ice cold 4% paraformaldehyde (PFA) for 10 min, washed 1× with PBS, and then mounted on glass slides with ProLong Gold reagent containing DAPI (Invitrogen). Confocal fluorescence images were collected with Cy5.5, and DAPI filters (Leica Inverted SPSX Confocal Microscope System). For antibody staining, the cells were pre-fixed with cold methanol for 10 min at −20° C. and blocked with 2% BSA for 30 min at RT. Cells were incubated with 1:450 dilution of anti HER2 antibody overnight at 4° C. The cells were washed 3× with PBS and processed for secondary staining. Goat-anti rabbit Alexa-Fluor 488 (AF488) was added to the cells and incubated for 1 hour at RT. Cells were further washed 3× with PBS and mounted onto glass cover slips. Fluorescence intensities from 3 independent images were quantified using custom Matlab (Mathworks) software.

Compound: CS(=O)(=O)CCNCc1ccc(-c2ccc3ncnc(Nc4ccc(OCc5cccc(F)c5)c(Cl)c4)c3c2)o1 [lapatinib]
- phosphorylation of HER2 (p-HER2), AKT (p-AKT) and ERK (p-ERK) ([1]; 1 to 1000 nM): reduced expression; also recorded: dose dependent reduction

Compound: KSP*: unlabeled KSP* peptide (KSPNPRF without Cy5.5 fluorophore)
- phosphorylation of HER2 (p-HER2), AKT (p-AKT) and ERK (p-ERK) ([1]; 5 and 100 μM): no change; also recorded: no reduction
- fluorescence intensity of KSP*-Cy5.5 on competition with unlabeled peptide [2]: decrease significantly in a concentration dependent manner

- mean fluorescence intensity compared with other peptide candidates [3]: highest mean fluorescence intensity
Compound: KSPNPRF (also: FITC label, site not given here) [HER2-specific peptide; FITC-labeled for candidate selection]

- staining with cancer progression in Barrett's esophagus (SQ, BE, LGD, HGD, EAC) [4]: Minimal staining
- staining of normal mouse colonic mucosa [5]: Minimal staining
- mean (±std) T/B ratio ([6]; topical 100 μM, 5 min incubation, adenomas): 1.46±0.25
- binding to cell surface on confocal microscopy [7]: minimal binding
Compound: PPS*-Cy5.5: scrambled control peptide PPSNFKR linked to Cy5.5 via GGGSK (PPSNFKRGGGSK-{Cy5.5-NH2}; also: Cy5.5 attached via GGGSK linker, end not given here)
- NIR fluorescence signal from polyp / flat adenoma ([6]; topical administration): Minimal signal; also recorded: significantly reduced signal
